Results from US8530213B2, “Compositions and methods for using NADH oxidases” (Georgia Tech Research Corporation, priority 2009, dated 2013).

Columns and labels:
[1] = Temperature stability (30 minutes incubation, assayed at 25° C.); format: physicochemical
Description: Temperature stability was studied by incubating the enzyme at various temperatures for 30 minutes. The enzyme solution was then cooled down and assayed at 25° C. This study covered a temperature range of 15° C. to 55° C.

[2] = Total turnover number (TTN), NADH; format: biochemical; set-up: key: TTN = change in NAD(P)H concentration / amount of enzyme
Description: Standard kinetic assays were performed with small amounts of enzyme. Assays were carried out for two to three hours until there was no more enzymatic conversion of the substrate.
Total turnover number (TTN) is a measurement of catalyst productivity. For biocatalysts, TTN is defined as the total amount of product produced over the lifetime of an enzyme. […] […] (data not shown).
This experiment was repeated to see if the presence of reducing agents had any effect on the total turnover number. The stock solution of enzyme was dialyzed against 250 mL of 10 mM Tris-HCl (pH 7.5) for two hours. The solution was then exchanged and dialyzed for an additional 2 hours. The TTN was then measured with the dialyzed enzyme with and without reducing agents. DTT and β-mercaptoethanol (β-ME) were used at a concentration of 5 mM. The TTN for the sample with no reducing agents, DTT and β-ME were 128,000, 168,000 and 107,000, respectively.

[3] = NOX5 mutants assayed at the cell lysate level, NADH activity; format: biochemical
Description: (§1) Standard assays were performed at 25° C. in 100 mM TEA buffer (pH 7.5) with 5 mM DTT in cuvettes with either a 1 cm or 1 mm path length, depending on the concentration of substrate. Initial activity was measured by following the absorbance change using a Beckman Coulter DU 800 UV/Vis spectrophotometer at 340 nm. Activity of the enzyme was calculated using an extinction coefficient of NAD(P)H, ε, as 6.22 mM^−1 cm^−1. Unless otherwise noted, a substrate concentration of 0.2 mM NADPH was used for assays. 1 unit (U) of activity is defined as […].
(§2) Single mutations were done on residues G178 and L179 into K, R and K, R, H respectively, and double mutations were also investigated with different combinations of the single mutations. The mutation of G178H was excluded due to the fact that the enzyme would then have two histidines next to each other, creating steric hindrance in the binding pocket. The resulting mutants were expressed on small scale and assayed at the cell lysate level.

[4] = Temperature activity profile; format: biochemical
Description: as §1
Temperature dependent activity was studied by incubating the enzyme at different temperatures. After one minute of incubation, the standard assay was carried out. A temperature range of 10 to 55° C. was chosen for this study.

[5] = Kinetic parameters of purified NADH oxidases, substrate NADH; format: biochemical; settings: purified enzyme, excess of oxygen
Description: as §1
[…] This was conducted with an excess of oxygen present in the system. The reaction was initiated by mixing two separate 2× solutions of each the substrate and enzyme. The specific activity was measured, and the kinetic parameters were calculated from that data.
The data was fitted with four different models: non-linear Michaelis-Menten, Lineweaver-Burk, Eadie-Hofstee and Hanes. Through non-linear fitting, kcat and KM of the wild type were measured to be 211.6 s^−1 and 50.2 μM, respectively with an R^2 of 0.998. (FIG. 5).

pH activity profile = format: biochemical; settings: 25° C., 100 mM buffers
Description: as §1
Enzyme pH activity profiles were obtained at 25° C. using 100 mM buffers with the following salts: sodium citrate from pH 4.0 to pH 6.5; sodium phosphate from pH 6.0 to pH 8.0; TEA from pH 7.0 to pH 8.0; Tris-HCl from pH 7.0 to pH 9.0; glycine from pH 9.0 to pH 10.0.

[6] = NOX5 mutants assayed at the cell lysate level, NADPH activity; format: biochemical
Description: as §1, §2

[7] = Amplex Red assay of H2O2 produced during turnover; format: biochemical; settings: 50 mM sodium phosphate buffer (pH 7.4)
Description: An Amplex Red Hydrogen Peroxide/Peroxidase Assay Kit (Invitrogen) was used to determine the amount of hydrogen peroxide (H2O2) produced during turnover. Various amounts of substrates were reacted and assayed to detect the presence of H2O2. The reactions were carried out in the provided 50 mM sodium phosphate buffer (pH 7.4). Standards for the calibration curve were made with the same reaction buffer.
To determine whether NOX5 is a water or hydrogen peroxide producing enzyme, an amplex red assay was performed. The presence of H2O2 can be confirmed by incubating the standard assay mixture with amplex red and peroxidase. Produced resorufin can be detected using a fluorescence spectroscopy analysis.

B1: NOX5: NADH oxidase V from Lactobacillus plantarum, wild type, 49 kDa, SEQ ID NO: 1 (protein, listed as Lactobacillus plantarum)
chain: MKVIVIGCTHAGTAAVNQILASNPDTEVTIYERNDNVSFLSCGIALYLGGQVADPQGLFYSSPEQLAKLGATVHMQHDVTDVNTDKHEITVTDLKTGESKTDHYDKLVVTTGSWPVIPPIDGIDSPNVYLCKNWTHAQNLWEAAKPAKRVIVIGGGYIGTELVEAYQKQGKEVTLIDGLPRILNKYLDKEFTDRVEQDFVDHGIKMALNQMVQGFSDDGKEVTVKTDKGSYTADMAILCVGFRPNTGLLKGKVDMNANGSIKTNDYMQTSDPDIYGAGDSVAVHYNPTKKDAYIPLATNAVRQGTLVGLNIFKPTRKYMGTQSTSGLMLFGQTIVSSGMTLEHAQAENVPAAAVTFEDNYRPEFMPTTKPVLMQLVYNPETREILGAQFMSEHDVSQSANVISVMIQNHNTIDDLGFVDMFFQPIYDRPFNYLNLLGQAAIAHAAEAVTE
- Enthalpy of deactivation, ΔH [1]: 1.19 kcal/mol
- activity at 55° C. ([1]; 55° C.): inactive
- T50^30, temperature that exhibited half of the original activity ([1]; 30 minutes incubation): 45 °C
- TTN with DTT, NADH ([2]; 5 mM DTT, 25° C., listed as NOX5 WT): 168,000
- TTN with β-mercaptoethanol (β-ME) ([2]; 5 mM β-ME, dialyzed enzyme): 107,000
- TTN, NADH ([2]; no reducing agents): 128,000
- NADH activity [3]: 10.0 U/mg
- activation energy, Ea ([4]; Arrhenius model): 7.82 kcal/mol
- deactivation energy, Ed ([4]; Arrhenius model): -22.4 kcal/mol
- temperature of maximum instantaneous activity ([4]; range 10 to 55° C., one minute of incubation): 40 °C
- Km [5]: 50.2 µM
- kcat, NADH [5]: 211.6 s⁻¹
- pH of maximum activity (pH activity profile): 7.5
- NADPH activity [6]: 0.00 U/mg
- H2O2 produced, ratio of NADH [7]: 2.63%
